Measured values from paper PMC4431665.

Legend:
[1] = target: Yeast Hsp40 (yeast) (UniProt P25491); assay: native MS; Hsp40 alone, 100 mM ammonium acetate pH 7.5 (Figure S5C)
[2] = target: Hsp70 expressed in Sf9 insect cells (Hsp70Sf9) (human) (UniProt P0DMV8); assay: native MS; 1:1 mixture of 3 μM 13C-labeled Hsp70 E. coli and Hsp70Sf9, incubated without phosphatase in 100 mM AmAc pH 7.5 at 4°C for 16 hr; high backing pressure
[3] = target: Hsp70 expressed in Sf9 insect cells (Hsp70Sf9) (human) (UniProt P0DMV8); assay: native MS; 2 μM Hsp70Sf9, 0.5 μM Hsp40, 200 μM ATP/Mg2+, binding buffer with 50, 100 or 300 mM KCl, 1 hr at room temperature; buffer exchanged to 100 mM AmAc
[4] = target: Hsp70 expressed in Sf9 insect cells (Hsp70Sf9) (human) (UniProt P0DMV8); assay: native MS; 1:1 mixture of 13C-labeled Hsp70 E. coli and Hsp70Sf9 at 8 μM; parameters designed to preserve non-covalent interactions
[5] = target: Hsp90_(2)Hop complex (human) (UniProt P07900); assay: native MS; Hsp90 and Hop with either Hsp70 E. coli or Hsp70Sf9, in the absence of Hsp40
[6] = target: Hsp70 expressed in Sf9 insect cells (Hsp70Sf9) (human) (UniProt P0DMV8); assay: native MS; 1:1 ratio of 13C-labeled Hsp70 E. coli and Hsp70Sf9 with catalytic amounts of Hsp40 and ATP
[7] = target: Hsp70 expressed in Sf9 insect cells (Hsp70Sf9) (human) (UniProt P0DMV8); assay: cross-linking; BS3 on Hsp70Sf9 in excess ATP (also ADP, ATPγS); SDS-PAGE, monomer and dimer bands digested with trypsin, LC-MS/MS
[8] = target: Hsp70 expressed in E. coli (Hsp70 E. coli) (human) (UniProt P0DMV8); assay: native MS; 1:1 mixture of 13C-labeled Hsp70 E. coli and Hsp70Sf9 at 8 μM; parameters designed to preserve non-covalent interactions
[9] = target: Hsp70 expressed in E. coli (Hsp70 E. coli) (human) (UniProt P0DMV8); assay: native MS; 1:1 ratio of 13C-labeled Hsp70 E. coli and Hsp70Sf9 with catalytic amounts of Hsp40 and ATP
[10] = target: Hsp70 expressed in E. coli (Hsp70 E. coli) (human) (UniProt P0DMV8); assay: native MS; Hsp70 E. coli at a higher concentration under which dimerization occurs, with phosphatase, 48 hr (Figures S1A and S1B)
[11] = target: Hsp70 E. coli T504E phosphomimic variant (human) (UniProt P0DMV8); assay: native MS; labeled wild-type Hsp70 E. coli and the T504E variant examined in a 1:1 ratio (Figure S1C)
[12] = target: Hsp70; assay: comparative BS3 cross-linking with LC-MS/MS; details: reference: Hsp70 expressed in E. coli; sites T504
[13] = target: Hsp70 E. coli V438F/T504E substrate-binding-deficient variant (human) (UniProt P0DMV8); assay: not stated; dimerization of the V438F/T504E mutant (Figure S4B); method not given
[14] = target: Hsp90 (human) (UniProt P07900); assay: native MS; stoichiometric amounts of p23 added to the client-loading complex Hsp90_(2)Hsp70_(2)HopGR
[15] = target: Hsp90 (human) (UniProt P07900); assay: native MS; Hsp90 and Hop with either Hsp70 E. coli or Hsp70Sf9, in the absence of Hsp40
[16] = target: Hsp90 (human) (UniProt P07900); assay: native MS; Hsp70GR complex formed with catalytic Hsp40 (0.3 μM) and ATP, then incubated with Hsp90_(2)Hop; Hsp90, Hop, Hsp70 and GR equimolar (1 μM each), or two Hsp70 per Hsp90_(2)

“Yeast Hsp40 (from UniProt P25491 1-409) (natural protein)” showed a stoichiometry N [1] of 2.

Substance “Hsp70 expressed in Sf9 insect cells (Hsp70Sf9) (from UniProt P0DMV8 1-641) (natural protein)” has a stoichiometry N [2] of 2, a stoichiometry N [3] of 2 and a stoichiometry N [4] of 2. The stoichiometry N [5] was 2, the stoichiometry N [6] was 2 and the stoichiometry N [7] was 2.

“Hsp70 expressed in E. coli (Hsp70 E. coli) (from UniProt P0DMV8 1-641) (natural protein)” was tested, and the stoichiometry N [8] was 2, the stoichiometry N [9] was 2 and the stoichiometry N [10] was 2.

Substance “Hsp70 E. coli T504E phosphomimic variant (from UniProt P0DMV8 1-641) (natural protein)” has a stoichiometry N [11] of 2.

With Hsp70 Hsp70 expressed in Sf9 cells the “other: K569-K108 cross-link intensity ratio” value [12] was “stronger; reference 1.0”.

Substance “Hsp70 E. coli V438F/T504E substrate-binding-deficient variant (from UniProt P0DMV8 1-641) (natural protein)” has a stoichiometry N [13] of 2.

Work on “Hsp90 (from UniProt P07900 1-732) (natural protein)” yielded a stoichiometry N [14] of 2, a stoichiometry N [15] of 2 and a stoichiometry N [16] of 2.
